{"source": "patent US20020111476A1", "about": "(published 2002)", "proteins": {"B1": {"name": "Mouse cysteine rich soluble protein 2 (C2) (ligand)", "chain": "DETIEIIVENKVKELLANPANYPSTVTKTLSCTSVKTMNRWASCPAGMTATGCACGFACGSWEIQSGDTCNCLCLLVDWTTARCCQLS", "notes": "the copy number is not fixed; also called mC2; mouse C2"}}, "target": "the molecule itself", "experiment": "preliminary analysis of molecular form; method not detailed"}
{"protein": "B1", "values": [{"measurement": "binding result", "value": "binds"}]}
